Numbering of substitutions follows the chain as printed.
T1: APBA2_2, Q99767
T1 sequence (Q99767 654-744, limits assumed, looked up): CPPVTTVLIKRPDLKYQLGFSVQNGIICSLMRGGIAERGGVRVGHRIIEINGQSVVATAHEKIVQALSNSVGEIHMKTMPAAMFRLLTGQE

T2: PTPN13_1, Q12923
T2 sequence (Q12923 1088-1188, limits assumed, looked up): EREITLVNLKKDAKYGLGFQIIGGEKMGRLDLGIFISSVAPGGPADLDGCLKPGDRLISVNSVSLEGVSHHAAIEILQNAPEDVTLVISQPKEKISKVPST

T3: APBA3_1, O96018
T3 sequence (O96018 389-490, limits assumed, looked up): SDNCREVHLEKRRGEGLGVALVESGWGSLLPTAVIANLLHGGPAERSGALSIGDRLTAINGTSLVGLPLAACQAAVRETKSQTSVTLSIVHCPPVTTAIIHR

T4: FRMPD1, Q5SYB0
T4 sequence (Q5SYB0 52-145, limits assumed, looked up): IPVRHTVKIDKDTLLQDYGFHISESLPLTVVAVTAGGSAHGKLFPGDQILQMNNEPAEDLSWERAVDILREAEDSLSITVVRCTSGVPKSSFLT

T5: MPDZ_10, O75970
T5 sequence (O75970 1624-1722, limits assumed, looked up): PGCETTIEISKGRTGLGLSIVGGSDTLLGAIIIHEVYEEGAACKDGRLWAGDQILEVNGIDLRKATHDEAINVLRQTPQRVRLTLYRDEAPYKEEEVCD

T6: SYNJ2BP, P57105
T6 sequence (P57105 8-110, limits assumed, looked up): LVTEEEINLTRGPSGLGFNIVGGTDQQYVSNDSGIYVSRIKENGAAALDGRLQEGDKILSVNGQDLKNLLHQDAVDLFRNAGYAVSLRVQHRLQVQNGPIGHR

T7: HTRA4, P83105
T7 sequence (P83105 378-476, limits assumed, looked up): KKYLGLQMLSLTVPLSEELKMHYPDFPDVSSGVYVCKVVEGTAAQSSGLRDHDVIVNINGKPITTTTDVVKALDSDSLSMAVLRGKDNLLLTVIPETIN

T8: PDZD7_3, Q9H5P4
T8 sequence (Q9H5P4 857-944, limits assumed, looked up): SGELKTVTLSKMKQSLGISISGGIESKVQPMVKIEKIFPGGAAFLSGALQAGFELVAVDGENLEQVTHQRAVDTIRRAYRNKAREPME

T9: APBA1_2, Q02410
T9 sequence (Q02410 742-832, limits assumed, looked up): T1 sequence (Q99767 654-744, limits assumed, looked up) with K10R, K15R, A59P, Q65H, A66I, S70A, F84Y, G89A

T10: NHERF3_4, Q5T2W1
T10 sequence (Q5T2W1 373-468, limits assumed, looked up): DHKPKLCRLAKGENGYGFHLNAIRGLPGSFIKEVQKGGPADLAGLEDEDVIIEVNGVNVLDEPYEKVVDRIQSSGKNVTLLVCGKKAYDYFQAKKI

T11: ARHGAP21, Q5T5U3
T11 sequence (Q5T5U3 45-169, limits assumed, looked up): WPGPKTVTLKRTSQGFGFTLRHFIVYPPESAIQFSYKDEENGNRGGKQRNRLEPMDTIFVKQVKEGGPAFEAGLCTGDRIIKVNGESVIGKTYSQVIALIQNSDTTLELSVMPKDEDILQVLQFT

T12: SIPA1L2, Q9P2F8
T12 sequence (Q9P2F8 945-1036, limits assumed, looked up): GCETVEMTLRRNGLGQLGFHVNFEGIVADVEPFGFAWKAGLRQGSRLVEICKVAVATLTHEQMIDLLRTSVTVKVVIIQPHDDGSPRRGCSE

T13: LIN7B, Q9HAP6
T13 sequence (Q9HAP6 88-185, limits assumed, looked up): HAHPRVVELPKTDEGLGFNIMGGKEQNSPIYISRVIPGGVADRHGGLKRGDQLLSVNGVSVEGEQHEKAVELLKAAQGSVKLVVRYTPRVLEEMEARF


Tests used:
Experiment in all cases: holdup assay
Set-up in all cases: key: below the threshold = too weak to quantify, mostly under pKd 3.1 to 4
Conditions in all cases: plain residues with an end cap or a label only (N-terminal biotin on a linker: ado-ado)
[1] = target: MAST2, Q6P0Q8
Chain of MAST2, Q6P0Q8 (Q6P0Q8 1099-1202): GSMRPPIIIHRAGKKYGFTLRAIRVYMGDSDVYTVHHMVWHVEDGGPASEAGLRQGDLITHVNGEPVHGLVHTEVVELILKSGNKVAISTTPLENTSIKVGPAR

[2] = target: T1, APBA2_2, Q99767
[3] = target: GRIP2_7, Q9C0E4
Chain of GRIP2_7, Q9C0E4 (Q9C0E4 934-1023): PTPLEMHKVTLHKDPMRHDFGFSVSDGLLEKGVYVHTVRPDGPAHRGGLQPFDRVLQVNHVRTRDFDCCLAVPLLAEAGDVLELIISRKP

[4] = target: MAGI3_2, Q5TCQ9
Chain of MAGI3_2, Q5TCQ9 (Q5TCQ9 398-503): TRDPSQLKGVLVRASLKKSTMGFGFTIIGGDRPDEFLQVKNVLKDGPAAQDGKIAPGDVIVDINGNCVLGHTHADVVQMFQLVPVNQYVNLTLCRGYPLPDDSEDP

[5] = target: T2, PTPN13_1, Q12923
[6] = target: T3, APBA3_1, O96018
[7] = target: T4, FRMPD1, Q5SYB0
[8] = target: GRIP2_3, Q9C0E4
Chain of GRIP2_3, Q9C0E4 (Q9C0E4 238-339): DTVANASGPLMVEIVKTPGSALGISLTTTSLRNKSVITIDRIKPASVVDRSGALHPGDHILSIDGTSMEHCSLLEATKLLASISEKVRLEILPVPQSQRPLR

[9] = target: T5, MPDZ_10, O75970
[10] = target: T6, SYNJ2BP, P57105
[11] = target: T7, HTRA4, P83105
[12] = target: T8, PDZD7_3, Q9H5P4
[13] = target: T9, APBA1_2, Q02410
[14] = target: DLG1_1, Q12959
[15] = target: PDLIM1, O00151
Chain of PDLIM1, O00151 (O00151 1-87): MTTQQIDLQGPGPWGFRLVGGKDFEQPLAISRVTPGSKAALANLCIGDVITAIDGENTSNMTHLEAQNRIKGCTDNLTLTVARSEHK

[16] = target: GIPC2, Q8TF65
Chain of GIPC2, Q8TF65 (Q8TF65 112-203): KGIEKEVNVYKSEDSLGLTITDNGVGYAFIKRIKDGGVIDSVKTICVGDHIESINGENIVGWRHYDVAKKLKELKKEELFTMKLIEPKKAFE

[17] = target: TJP2_1, Q9UDY2
Chain of TJP2_1, Q9UDY2 (Q9UDY2 24-128): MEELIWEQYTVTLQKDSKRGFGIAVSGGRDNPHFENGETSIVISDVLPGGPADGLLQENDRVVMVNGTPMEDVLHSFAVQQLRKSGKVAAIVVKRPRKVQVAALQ

[18] = target: T10, NHERF3_4, Q5T2W1
[19] = target: T11, ARHGAP21, Q5T5U3
[20] = target: T12, SIPA1L2, Q9P2F8
[21] = target: T13, LIN7B, Q9HAP6
[22] = target: GRASP, Q7Z6J2
Chain of GRASP, Q7Z6J2 (Q7Z6J2 96-193): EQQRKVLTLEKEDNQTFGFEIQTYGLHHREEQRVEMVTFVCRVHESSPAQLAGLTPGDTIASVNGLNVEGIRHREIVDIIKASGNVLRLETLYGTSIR

[23] = target: Inadl_2, Q8NI35
Chain of Inadl_2, Q8NI35 (Q8NI35 238-335): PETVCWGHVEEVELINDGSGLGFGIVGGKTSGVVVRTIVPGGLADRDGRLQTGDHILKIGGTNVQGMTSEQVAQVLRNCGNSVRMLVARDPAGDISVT

[24] = target: MAGI2_4, Q86UL8
Chain of MAGI2_4, Q86UL8 (Q86UL8 772-865): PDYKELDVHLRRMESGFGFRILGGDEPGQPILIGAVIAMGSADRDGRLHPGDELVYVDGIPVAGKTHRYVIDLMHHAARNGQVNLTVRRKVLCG

[25] = target: SNX27, Q96L92

Row | pKd [1] | pKd [2] | pKd [3] | pKd [4] | pKd [5] | pKd [6] | pKd [7] | pKd [8] | pKd [9] | pKd [10] | pKd [11] | pKd [12] | pKd [13] | pKd [14] | pKd [15] | pKd [16] | pKd [17] | pKd [18] | pKd [19] | pKd [20] | Binder | further results
1 | 5.22 | below the threshold | below the threshold | below the threshold | below the threshold | below the threshold | below the threshold | below the threshold | below the threshold | 4.43 | 3.75 | 4.97 | below the threshold | 4.1 | below the threshold | 3.8 | below the threshold | below the threshold | 3.98 | below the threshold | DYSNLRETDI [ADRA1D, P25100] | pKd [21]: 3.62; pKd [22]: below the threshold; pKd [23]: below the threshold; pKd [24]: below the threshold; pKd [25]: 4.21
2 | 4.62 | below the threshold | below the threshold | below the threshold | below the threshold | below the threshold | below the threshold | below the threshold | below the threshold | below the threshold | below the threshold | below the threshold | below the threshold | below the threshold | below the threshold | 3.71 | below the threshold | below the threshold | 4.02 | 3.49 | SAGADSETHC [SLCO1B1, Q9Y6L6] | pKd [21]: 3.69; pKd [22]: below the threshold; pKd [23]: below the threshold; pKd [24]: below the threshold; pKd [25]: 4.65
3 | 4.08 | below the threshold | 3.55 | 4.12 | 3.57 | below the threshold | below the threshold | 3.51 | 3.63 | 4.48 | below the threshold | 4.19 | 3.63 | 4.11 | below the threshold | 3.87 | below the threshold | 3.58 | 4 | below the threshold | QLKSGRDSTV [TMEM178A, Q8NBL3] | pKd [21]: below the threshold; pKd [22]: 3.56; pKd [23]: below the threshold; pKd [24]: 3.92; pKd [25]: 4.01

Source: paper PMC9482650, “Quantitative fragmentomics allow affinity mapping of interactomes” (Nature Communications, 2022)
